This note sets out measurements from patent US20150201663.

In the series the target is T1, E(Edans)-AAHAAK-(Dabcyl)-NH2 (not fully specified).
T1 chain: AAHAAK

B1: aspergillopepsin II (An01g00530) (protein)
chain: EDYSSNWAGAVLIGDGYTKVTGEFTVPSVSAGSSSSSGYGGGYGYYKNKRQSEEYCASAWVGIDGDTCETAILQTGVDFCYEDGQTSYDAWYEWYPDYAYDFNDITISEGDTIKVTVEATSKSSGSATVENLTTGQSVTHTFSGNVEGDLCETNAEWIVEDFESGDSLVAFADFGSVTFTNAEATSDGSTVGPSDATVMDIEQDGTVLTETSVSGDSVTVTYV
With B1, the “enzyme activity in relative fluorescent units (rfu) per minute per mg of protein; cleavage of FRET peptide at pH 4” value is given as “yields by the highest rfu value for aspergillopepsin II”; the “mass spectrometry of the substrate's cleavage fragments (E(Edans)-AAH and AAK-(Dabcyl)NH2)” value was “aspergillopepsin II cleaves histidine at the C-terminal in the E(Edans)-AAHAAK-(Dabcyl)NH2 substrate”.
